In patent publication US10562947B2, “Compositions and methods for preventing or treating diseases, conditions or processes characterized by aberrant fibroblast proliferation and extracellular matrix deposition” (MOERAE MATRIX, INC., priority 2011, dated 2020):

What was measured:
Assay in all cases: Kinase Profiling Assay
Assay type in all cases: biochemical
Conditions in all cases: 100 μM peptide
Tie2(Y897S)(h) = Tie2(Y897S)(h) (Homo sapiens, UniProt Q02763, Y897S)
Procedure, shortened: (§1)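 Off-target screen of MK2 peptide inhibitors, 266 human kinases, n = 2 per activity measurement.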

CK1δ(h) = CK1δ(h) (Homo sapiens, UniProt P48730)
Procedure, shortened: as §1

PKCη(h) = PKCη(h) (Homo sapiens, UniProt P24723)
Procedure, shortened: as §1

GSK3α(h) = target: T1, GSK3α(h) (Homo sapiens, UniProt P49840)
T1 construct: purchased Millipore
Procedure, shortened: as §1

CDK3/cyclinE(h) = CDK3/cyclinE(h) (Homo sapiens, UniProt Q00526)
Procedure, shortened: as §1

DCAMKL2(h) = target: T2, DCAMKL2(h) (Homo sapiens, UniProt Q8N568)
T2 sequence (Q8N568 1-766): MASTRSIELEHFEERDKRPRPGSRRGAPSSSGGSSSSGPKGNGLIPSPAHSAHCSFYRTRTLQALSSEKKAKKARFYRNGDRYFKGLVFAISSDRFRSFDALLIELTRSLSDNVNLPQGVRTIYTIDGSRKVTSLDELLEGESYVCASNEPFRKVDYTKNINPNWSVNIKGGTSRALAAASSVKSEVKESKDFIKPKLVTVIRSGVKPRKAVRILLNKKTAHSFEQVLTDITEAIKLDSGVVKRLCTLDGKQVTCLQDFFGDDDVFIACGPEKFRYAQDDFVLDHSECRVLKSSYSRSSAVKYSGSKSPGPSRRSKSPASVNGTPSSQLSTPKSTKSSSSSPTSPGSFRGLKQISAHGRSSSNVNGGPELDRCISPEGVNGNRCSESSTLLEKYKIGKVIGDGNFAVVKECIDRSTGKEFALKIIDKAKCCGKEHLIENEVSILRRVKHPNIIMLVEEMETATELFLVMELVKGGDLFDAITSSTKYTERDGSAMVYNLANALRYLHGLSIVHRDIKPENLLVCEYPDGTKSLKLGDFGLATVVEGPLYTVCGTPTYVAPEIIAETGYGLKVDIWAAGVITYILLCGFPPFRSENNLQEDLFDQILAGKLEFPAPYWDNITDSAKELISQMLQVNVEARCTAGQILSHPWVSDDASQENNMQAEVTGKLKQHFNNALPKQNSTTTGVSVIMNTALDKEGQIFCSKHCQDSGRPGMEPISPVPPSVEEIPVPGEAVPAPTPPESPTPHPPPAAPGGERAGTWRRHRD
Procedure, shortened: as §1

BrSK2(h) = target: T3, BrSK2(h) (Homo sapiens, UniProt Q8IWQ3)
T3 sequence (Q8IWQ3 1-736): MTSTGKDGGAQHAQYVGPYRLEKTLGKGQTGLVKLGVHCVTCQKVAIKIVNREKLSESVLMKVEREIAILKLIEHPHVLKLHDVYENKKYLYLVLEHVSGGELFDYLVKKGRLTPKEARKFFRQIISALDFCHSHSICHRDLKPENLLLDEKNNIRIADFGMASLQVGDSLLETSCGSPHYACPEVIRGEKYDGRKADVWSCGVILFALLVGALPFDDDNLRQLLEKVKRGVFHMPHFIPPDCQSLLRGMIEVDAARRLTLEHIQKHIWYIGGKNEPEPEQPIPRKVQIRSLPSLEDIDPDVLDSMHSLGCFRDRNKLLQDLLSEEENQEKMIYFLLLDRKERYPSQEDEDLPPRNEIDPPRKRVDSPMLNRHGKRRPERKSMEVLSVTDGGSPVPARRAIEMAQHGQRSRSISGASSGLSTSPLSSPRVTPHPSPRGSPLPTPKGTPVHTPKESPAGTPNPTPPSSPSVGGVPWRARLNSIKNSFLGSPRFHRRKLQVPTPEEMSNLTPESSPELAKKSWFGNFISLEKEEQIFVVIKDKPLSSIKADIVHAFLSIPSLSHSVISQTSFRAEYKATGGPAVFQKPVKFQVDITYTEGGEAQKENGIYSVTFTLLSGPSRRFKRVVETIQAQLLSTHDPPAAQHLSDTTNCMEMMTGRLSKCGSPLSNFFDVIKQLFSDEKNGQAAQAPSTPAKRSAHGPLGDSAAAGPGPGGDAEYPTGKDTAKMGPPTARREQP
Procedure, shortened: as §1

DYRK2(h) = target: T4, DYRK2(h) (Homo sapiens, UniProt Q92630)
T4 sequence (Q92630 1-601): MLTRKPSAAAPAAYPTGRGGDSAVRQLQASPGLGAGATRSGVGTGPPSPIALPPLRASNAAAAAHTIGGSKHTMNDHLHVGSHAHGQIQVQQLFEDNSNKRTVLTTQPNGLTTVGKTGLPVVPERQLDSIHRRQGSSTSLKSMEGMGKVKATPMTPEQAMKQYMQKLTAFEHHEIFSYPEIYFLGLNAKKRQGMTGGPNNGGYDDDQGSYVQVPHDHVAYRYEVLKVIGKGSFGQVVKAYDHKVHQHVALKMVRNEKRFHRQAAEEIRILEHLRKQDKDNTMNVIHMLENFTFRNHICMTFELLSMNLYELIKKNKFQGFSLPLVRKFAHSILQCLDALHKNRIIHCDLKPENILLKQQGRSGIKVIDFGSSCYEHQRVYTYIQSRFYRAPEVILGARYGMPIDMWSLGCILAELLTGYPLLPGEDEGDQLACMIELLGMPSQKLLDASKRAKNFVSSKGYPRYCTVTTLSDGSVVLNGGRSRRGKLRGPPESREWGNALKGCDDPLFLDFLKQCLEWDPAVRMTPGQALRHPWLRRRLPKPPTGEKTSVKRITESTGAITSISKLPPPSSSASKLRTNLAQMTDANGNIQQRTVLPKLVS
Procedure, shortened: as §1

PAK4(h) = PAK4(h) (Homo sapiens, UniProt O96013)
Procedure, shortened: as §1

CDK3/cyclinE(h), sequence (Q00526 whole entry): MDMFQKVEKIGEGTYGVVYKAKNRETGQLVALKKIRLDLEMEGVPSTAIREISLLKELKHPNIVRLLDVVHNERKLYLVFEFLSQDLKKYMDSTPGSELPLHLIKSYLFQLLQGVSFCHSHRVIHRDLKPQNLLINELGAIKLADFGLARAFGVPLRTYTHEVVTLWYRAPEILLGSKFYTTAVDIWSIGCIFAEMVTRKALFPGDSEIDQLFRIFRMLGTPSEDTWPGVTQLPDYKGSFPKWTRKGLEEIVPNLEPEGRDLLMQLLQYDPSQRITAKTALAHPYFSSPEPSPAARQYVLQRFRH
CDK3/cyclinE(h), sequence (P24864 whole entry partner): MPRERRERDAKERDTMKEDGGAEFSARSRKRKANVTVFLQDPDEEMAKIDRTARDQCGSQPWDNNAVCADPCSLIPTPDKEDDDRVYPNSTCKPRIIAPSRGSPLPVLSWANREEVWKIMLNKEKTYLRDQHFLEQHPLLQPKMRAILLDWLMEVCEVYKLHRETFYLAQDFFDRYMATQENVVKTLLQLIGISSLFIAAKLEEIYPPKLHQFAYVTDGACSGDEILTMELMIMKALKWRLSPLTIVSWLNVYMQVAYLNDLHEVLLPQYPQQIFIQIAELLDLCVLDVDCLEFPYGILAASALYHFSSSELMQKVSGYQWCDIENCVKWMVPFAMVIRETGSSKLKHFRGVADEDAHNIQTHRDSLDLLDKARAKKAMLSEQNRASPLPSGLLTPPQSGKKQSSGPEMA
PKCη(h), sequence (P24723 whole entry): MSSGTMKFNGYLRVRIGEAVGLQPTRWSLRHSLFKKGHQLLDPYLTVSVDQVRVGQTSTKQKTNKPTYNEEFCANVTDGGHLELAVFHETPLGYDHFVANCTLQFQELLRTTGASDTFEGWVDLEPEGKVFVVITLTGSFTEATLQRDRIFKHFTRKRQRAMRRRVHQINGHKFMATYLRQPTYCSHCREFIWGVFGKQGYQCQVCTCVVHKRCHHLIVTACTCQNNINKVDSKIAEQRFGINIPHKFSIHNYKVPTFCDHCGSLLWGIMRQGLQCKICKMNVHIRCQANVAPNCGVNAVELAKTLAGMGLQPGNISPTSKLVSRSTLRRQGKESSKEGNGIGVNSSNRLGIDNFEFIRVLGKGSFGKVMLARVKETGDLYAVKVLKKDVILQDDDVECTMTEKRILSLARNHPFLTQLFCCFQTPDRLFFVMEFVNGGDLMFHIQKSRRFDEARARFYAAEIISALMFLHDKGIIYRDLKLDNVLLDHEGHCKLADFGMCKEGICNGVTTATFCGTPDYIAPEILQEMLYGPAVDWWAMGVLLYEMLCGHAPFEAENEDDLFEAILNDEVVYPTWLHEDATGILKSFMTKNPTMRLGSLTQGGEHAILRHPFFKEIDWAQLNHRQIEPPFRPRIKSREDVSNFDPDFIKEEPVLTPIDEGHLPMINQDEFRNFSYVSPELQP
PAK4(h), sequence (O96013 whole entry): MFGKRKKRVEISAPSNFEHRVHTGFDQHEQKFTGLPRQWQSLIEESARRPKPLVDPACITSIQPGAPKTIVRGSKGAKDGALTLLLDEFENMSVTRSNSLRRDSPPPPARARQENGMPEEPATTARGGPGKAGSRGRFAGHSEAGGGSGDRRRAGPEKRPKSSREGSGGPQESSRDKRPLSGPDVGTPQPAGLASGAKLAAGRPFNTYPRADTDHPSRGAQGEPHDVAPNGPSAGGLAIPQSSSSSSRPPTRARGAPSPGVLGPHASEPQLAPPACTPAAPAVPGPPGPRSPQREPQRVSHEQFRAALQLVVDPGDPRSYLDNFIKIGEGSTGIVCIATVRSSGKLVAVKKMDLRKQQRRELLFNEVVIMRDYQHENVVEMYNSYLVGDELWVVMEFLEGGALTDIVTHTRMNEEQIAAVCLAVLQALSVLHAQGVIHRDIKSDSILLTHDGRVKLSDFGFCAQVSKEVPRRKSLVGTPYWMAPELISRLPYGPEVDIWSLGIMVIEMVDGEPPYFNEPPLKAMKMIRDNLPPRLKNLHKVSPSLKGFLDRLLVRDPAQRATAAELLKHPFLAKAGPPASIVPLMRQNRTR
Tie2(Y897S)(h), sequence (Q02763 23-1124 Y897S): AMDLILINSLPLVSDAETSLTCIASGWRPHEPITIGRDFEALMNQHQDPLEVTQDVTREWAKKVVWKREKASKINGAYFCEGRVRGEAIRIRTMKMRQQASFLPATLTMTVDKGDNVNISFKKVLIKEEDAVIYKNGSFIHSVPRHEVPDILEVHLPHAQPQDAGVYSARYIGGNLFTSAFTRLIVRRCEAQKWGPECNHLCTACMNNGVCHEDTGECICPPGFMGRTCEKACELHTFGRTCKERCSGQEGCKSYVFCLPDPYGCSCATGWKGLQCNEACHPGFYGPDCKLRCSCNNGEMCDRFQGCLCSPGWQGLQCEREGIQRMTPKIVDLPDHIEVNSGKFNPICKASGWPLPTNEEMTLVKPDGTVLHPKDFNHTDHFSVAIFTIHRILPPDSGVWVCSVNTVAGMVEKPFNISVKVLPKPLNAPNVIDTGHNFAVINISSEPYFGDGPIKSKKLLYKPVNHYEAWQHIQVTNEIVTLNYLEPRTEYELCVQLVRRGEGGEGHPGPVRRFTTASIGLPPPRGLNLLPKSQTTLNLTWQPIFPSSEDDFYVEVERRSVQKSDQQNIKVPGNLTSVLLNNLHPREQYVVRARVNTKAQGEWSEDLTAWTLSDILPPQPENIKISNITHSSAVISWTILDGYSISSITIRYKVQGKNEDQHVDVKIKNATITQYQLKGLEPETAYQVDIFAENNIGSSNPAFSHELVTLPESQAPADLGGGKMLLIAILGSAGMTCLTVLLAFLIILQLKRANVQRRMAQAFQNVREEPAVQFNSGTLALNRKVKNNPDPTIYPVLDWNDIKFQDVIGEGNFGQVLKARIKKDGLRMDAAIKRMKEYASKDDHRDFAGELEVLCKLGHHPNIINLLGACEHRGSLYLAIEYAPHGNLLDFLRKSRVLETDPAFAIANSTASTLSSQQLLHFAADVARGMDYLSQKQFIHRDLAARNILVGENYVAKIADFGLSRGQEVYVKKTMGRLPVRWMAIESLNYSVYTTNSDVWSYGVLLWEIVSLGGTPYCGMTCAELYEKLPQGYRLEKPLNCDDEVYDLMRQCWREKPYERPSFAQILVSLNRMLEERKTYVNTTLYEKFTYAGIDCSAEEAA
T1 sequence (P49840 whole entry): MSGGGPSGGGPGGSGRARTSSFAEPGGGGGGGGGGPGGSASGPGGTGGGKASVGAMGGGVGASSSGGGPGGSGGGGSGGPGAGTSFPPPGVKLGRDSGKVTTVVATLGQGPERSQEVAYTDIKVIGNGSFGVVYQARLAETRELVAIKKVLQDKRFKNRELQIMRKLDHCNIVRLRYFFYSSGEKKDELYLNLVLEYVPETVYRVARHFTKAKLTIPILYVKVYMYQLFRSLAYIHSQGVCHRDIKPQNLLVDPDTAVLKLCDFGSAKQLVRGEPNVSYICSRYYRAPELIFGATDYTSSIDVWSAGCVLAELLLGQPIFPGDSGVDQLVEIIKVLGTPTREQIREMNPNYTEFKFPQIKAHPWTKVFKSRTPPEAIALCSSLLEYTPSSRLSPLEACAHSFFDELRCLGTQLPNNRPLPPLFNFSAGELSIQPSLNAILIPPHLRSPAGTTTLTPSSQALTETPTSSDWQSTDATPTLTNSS
CK1δ(h), sequence (P48730 whole entry): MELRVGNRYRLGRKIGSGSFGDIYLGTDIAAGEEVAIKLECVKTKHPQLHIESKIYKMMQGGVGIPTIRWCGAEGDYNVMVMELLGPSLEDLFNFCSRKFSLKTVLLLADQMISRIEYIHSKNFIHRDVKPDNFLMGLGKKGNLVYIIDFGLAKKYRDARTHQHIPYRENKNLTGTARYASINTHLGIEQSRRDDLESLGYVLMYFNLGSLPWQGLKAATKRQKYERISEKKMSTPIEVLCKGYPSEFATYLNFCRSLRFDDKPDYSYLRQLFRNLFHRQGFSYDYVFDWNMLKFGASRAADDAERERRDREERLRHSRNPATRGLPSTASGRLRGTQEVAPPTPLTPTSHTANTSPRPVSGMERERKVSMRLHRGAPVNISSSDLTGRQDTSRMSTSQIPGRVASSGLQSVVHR

| Sequence | Tie2(Y897S)(h) % activity (Tie2(Y897S)(h)) [%] | CK1δ(h) % activity (CK1δ(h)) [%] | PKCη(h) % activity (PKCη(h)) [%] | GSK3α(h) % activity (GSK3α(h)) [%] | CDK3/cyclinE(h) % activity (CDK3/cyclinE(h)) [%] | DCAMKL2(h) % activity (DCAMKL2(h)) [%] | BrSK2(h) % activity (BrSK2(h)) [%] | DYRK2(h) % activity (DYRK2(h)) [%] | PAK4(h) % activity (PAK4(h)) [%] |
| --- | --- | --- | --- | --- | --- | --- | --- | --- | --- |
| HRRIKAWLKKIKALARQLGVAA (Mammalian) [MMI-0500] | 80 | 78 | 45 | 175 | 8 | 56 | 84 | 127 | 86 |
| FAKLAARLYRKALARQLGVAA [MMI-0300] | 83 | 92 | – | 157 | 94 | 81 | 83 | 155 | 94 |
| YARAAARQARAKALNRQLGVA (Mammalian) [MMI-0200] | 85 | 92 | 101 | – | – | 131 | – | 142 | 98 |
| KAFAKLAARLYRKALARQLGVAA [MMI-0400] | 87 | 93 | 98 | 164 | 92 | 70 | 86 | 195 | 89 |
